{"source": "patent US20240100133A1", "about": "“ENZYMATICALLY INACTIVE GRANZYME A AND USES THEREFORE” (Saint Louis University, priority 2022, published 2024)", "molecules": {"B1": {"name": "GzmA-WT: recombinant wild-type human Granzyme A, homodimeric serine protease, purified from HEK293T supernatants (protein)", "chain": "IIGGNEVTPHSRPYMVLLSLDRKTICAGALIAKDWVLTAAHCNLNKRSQVILGAHSITREEPTKQIMLVKKEFPYPCYDPATREGDLKLLQLMEKAKINKYVTILHLPKKGDDVKPGTMCQVAGWGRTHNSASWSDTLREVNITIIDRKVCNDRNHYNFNPVIGMNMVCAGSLRGGRDSCNGDSGSPLLCEGVFRGVTSFGLENKCGDPRGPGVYILLSKKHLNWIIMTIKGAV", "modifications": "left off: small tags and cut ends", "notes": "recombinant wild-type human Granzyme A, homodimeric serine protease, purified from HEK293T supernatants"}}, "key": {"[1]": {"tested_on": "human monocytes infected with BCG-GFP", "assay": "Phagocytic score, BCG-GFP uptake by monocytes", "conditions": "2 h of infection with BCG-GFP", "procedure": "Monocytes were treated or not with GzmA, after which BCG-GFP was used to infect cells for 2 hours. Cells were then washed twice with FACS buffer and processed by flow cytometry. The phagocytic score was measured as previously described (Ackerman et al., 2011)."}, "[2]": {"tested_on": "Mtb H37Rv within primary CD14+ human monocytes", "format": "cell-based, Mycobacterium tuberculosis"}, "[3]": {"tested_on": "BCG-GFP in human monocytes", "assay": "BCG-GFP protection experiments and kinetics by flow cytometry", "procedure": "Following treatment with GzmA and infection with mycobacteria, monocytes were first blocked with True Stain Fc blocker (Cat. #426101, Biolegend, San Diego, CA), and then permeabilized using permeabilization solution (Cat. #554715, BD Biosciences, San Diego, CA). Next, cells were incubated with anti-GzmA antibody conjugated with PE (Cat. #558904, BD Biosciences, San Diego, CA). A flow cytometer was then used to analyze BCG-GFP and GzmA-PE positive cells. FlowJo software was used for analysis."}, "[4]": {"tested_on": "Rab11-FIP1", "assay": "Quantitative shotgun proteomics of treated and infected monocytes", "format": "cell-based, human", "conditions": "200 nM GzmA, infected cells (MOI=3), overnight", "experimental": "Quantitative shotgun proteomics. 1.5e5 human monocytes were either treated or not with 200 nM GzmA, and infected or not with mycobacteria (MOI=3) overnight. After incubation, cells were then washed thrice with PBS, and the pellet lysed using lysis buffer from EasyPep Mini MS Sample Prep Kit (Cat #A40006, Thermo-Fisher, Waltham, MA) supplemented with 1:100 HALT phosphatase inhibitor (Cat #78420, Thermo-Fisher, Waltham, MA). Lysis, reduction/alkylation, protein digestion, and peptide clean-up were performed according to EasyPep recommendations. […] After peptide cleanup, samples were dried using a vacuum centrifuge, and then resuspended in 0.1% formic acid in water for LC-MS analysis. The samples were analyzed on a Q-Exactive orbitrap MS/MS equipped with a nanospray emitter (Thermo Fisher Scientific, Waltham, MA). Nanospray parameters in positive ion mode were as follows: spray voltage, 2.0 KV; capillary temperature, 320° C.; S-lens RF level, 55. […] The MS/MS spectra were analyzed using Sequest HT and MSPepSearch, both integrated in Proteome Discoverer 2.4.1.15 (Thermo Scientific, MA). […] Finally, the results were subjected to statistical analysis using percolator node where the False discovery rate (FDR) was calculated using a decoy database search and only high confidence peptide identifications with FDR 0.01 were included. […]"}}, "data": [{"molecule": "B1", "values": [{"measurement": "phagocytic score", "setting": "[1]", "value": "higher phagocytic score compared to untreated cells"}, {"measurement": "inhibition of intracellular Mtb (MGIA)", "setting": "[2]; 200 nM GzmA, Mtb MOI 1, human monocytes", "value": "inhibited Mtb"}, {"measurement": "GzmA inhibitory activity after CD14 neutralization, Mtb", "setting": "[2]; Mtb-infected monocytes, anti-CD14", "value": "reversed GzmA-mediated mycobacterial growth inhibition"}, {"measurement": "GzmA inhibitory activity after TLR4 neutralization, Mtb", "setting": "[2]; Mtb-infected monocytes, anti-TLR4", "value": "reversed GzmA-mediated mycobacterial growth inhibition"}, {"measurement": "uptake and persistence of bacteria in treated cells with detectable GzmA", "setting": "[3]; GzmA detected in treated monocytes", "value": "least uptake and persistence of bacteria"}, {"measurement": "mycobacterial growth in treated cells without sufficient internalization of protein (GzmA-)", "setting": "[3]; GzmA- cells, over 18 h", "value": "reduced mycobacterial growth over time"}, {"measurement": "reduction in mycobacterial growth AUC", "setting": "[3]; cells treated and staining positive for GzmA, over 18 h", "value": 78, "unit": "%"}, {"measurement": "Rab11-FIP1 protein level", "setting": "[4]", "value": "upregulated"}]}]}
